The target of data set [1] is T1, ComA;RNA polymerase alpha subunit (Bacillus subtilis;Bacillus subtilis, UniProt P14204;P20429 1-214;1-314, |).
T1 sequence 1: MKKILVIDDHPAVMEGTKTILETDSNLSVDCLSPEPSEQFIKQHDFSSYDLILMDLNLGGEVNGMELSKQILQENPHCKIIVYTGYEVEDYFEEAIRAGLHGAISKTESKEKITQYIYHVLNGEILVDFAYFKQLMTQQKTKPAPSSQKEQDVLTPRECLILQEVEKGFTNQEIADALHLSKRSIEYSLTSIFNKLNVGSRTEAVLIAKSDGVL
T1 sequence 2: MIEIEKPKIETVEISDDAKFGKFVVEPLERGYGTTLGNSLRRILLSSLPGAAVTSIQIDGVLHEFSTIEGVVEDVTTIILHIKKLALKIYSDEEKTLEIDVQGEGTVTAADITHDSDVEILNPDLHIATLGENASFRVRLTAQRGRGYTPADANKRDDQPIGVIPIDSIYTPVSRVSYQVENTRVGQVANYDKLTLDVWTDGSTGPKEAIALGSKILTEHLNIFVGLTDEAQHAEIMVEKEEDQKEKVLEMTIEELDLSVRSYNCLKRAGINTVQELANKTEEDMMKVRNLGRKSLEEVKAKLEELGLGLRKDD
The data set is described as follows: EMSA; supershift, same alpha concentration as PDR; EMSA: 10 mM HEPES pH 7.6, 2 mM MgCl2, 0.1 mM EDTA, 200 mM KCl, 5 mM DTT, 10% glycerol; 10 ng DNA in 15 ul, 20 min, room temperature. Particulars: protein: recombinant;recombinant; tags: N-terminal His6 (from expression primer);N-terminal His6 (from expression primer); label: 5' biotin on strand 1; blunt.

Data set [2] addresses T2, ComA (Bacillus subtilis, UniProt P14204 1-214).
T2 sequence: T1 sequence 1
The data set is described as follows: EMSA; complex at 1.2 uM or more; affinity similar to PDR; EMSA: 10 mM HEPES pH 7.6, 2 mM MgCl2, 0.1 mM EDTA, 200 mM KCl, 5 mM DTT, 10% glycerol; 10 ng DNA in 15 ul, 20 min, room temperature. Particulars: protein: recombinant; tags: N-terminal His6 (from expression primer); chain copies: 2; label: 5' biotin on strand 1; blunt.

Another data set deals with ComA;sigma factor sigmaA (Bacillus subtilis;Bacillus subtilis, UniProt P14204;P06224 1-214;1-371, |). Briefly: EMSA; supershift, same sigmaA concentration as PDR; EMSA: 10 mM HEPES pH 7.6, 2 mM MgCl2, 0.1 mM EDTA, 200 mM KCl, 5 mM DTT, 10% glycerol; 10 ng DNA in 15 ul, 20 min, room temperature. Particulars: protein: recombinant;recombinant; tags: N-terminal His6 (from expression primer);N-terminal His6 (from expression primer); chain copies: 2;1; label: 5' biotin on strand 1; blunt.

Data set [3] addresses T2, ComA. Briefly: EMSA; multiple complexes; EMSA: 10 mM HEPES pH 7.6, 2 mM MgCl2, 0.1 mM EDTA, 200 mM KCl, 5 mM DTT, 10% glycerol; 10 ng DNA in 15 ul, 20 min, room temperature. The conditions noted are these: protein: recombinant; tags: N-terminal His6 (from expression primer); chain copies: 2; label: 5' biotin on strand 1; blunt.

ComA;sigma factor sigmaA, sequence (P06224 whole entry, one chain of several): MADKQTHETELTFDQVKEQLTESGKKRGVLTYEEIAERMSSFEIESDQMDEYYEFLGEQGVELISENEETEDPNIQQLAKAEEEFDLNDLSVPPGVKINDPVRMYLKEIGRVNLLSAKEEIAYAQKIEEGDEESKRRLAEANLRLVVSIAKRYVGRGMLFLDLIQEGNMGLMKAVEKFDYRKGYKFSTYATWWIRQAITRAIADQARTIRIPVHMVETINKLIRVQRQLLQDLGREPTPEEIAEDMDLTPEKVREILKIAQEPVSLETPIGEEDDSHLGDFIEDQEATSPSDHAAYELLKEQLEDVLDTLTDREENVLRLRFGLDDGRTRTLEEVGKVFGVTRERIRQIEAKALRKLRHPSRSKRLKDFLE

B1: PIR (perfect inverted repeat) (dsDNA)
DNA 1: ATGTTTAGTGGAAATGATTGCGGCATCCCGCAAAAAATATTGCTGTAAAT
DNA 2: ATTTACAGCAATATTTTTTGCGGGATGCCGCAATCATTTCCACTAAACAT
Regarding B1, the binding result (in data set [1]; in the data set with ComA [2]; with ComA;sigma factor sigmaA) was “binds” throughout.

B2: Ppel DR cluster (DR1-DR3) (dsDNA)
DNA 1: CGGCCTTTTGGTTTTTTTGCGGTCTTTGCGGTGGGATTTTGCAGAAT
DNA 2: ATTCTGCAAAATCCCACCGCAAAGACCGCAAAAAAACCAAAAGGCCG
As to B2, the binding result with ComA [3] is “binds”.

The record behind these values is paper PMC4797271, “The quorum-sensing regulator ComA from Bacillus subtilis activates transcription using topologically distinct DNA motifs”.
